Laboratory results: PMC6092189 (Nature structural & molecular biology, 2018)
Changes are numbered by the printed parent chain. Numbers in names are those of the source.

B1: recombinant human β-cardiac myosin subfragment-1 (short S1, sS1, MYH7 residues 1-808) with C-termina (complex)
chain 1: MGDSEMAVFGAAAPYLRKSEKERLEAQTRPFDLKKDVFVPDDKQEFVKAKIVSREGGKVTAETEYGKTVTVKEDQVMQQNPPKFDKIEDMAMLTFLHEPAVLYNLKDRYGSWMIYTYSGLFCVTVNPYKWLPVYTPEVVAAYRGKKRSEAPPHIFSISDNAYQYMLTDRENQSILITGESGAGKTVNTKRVIQYFAVIAAIGDRSKKDQSPGKGTLEDQIIQANPALEAFGNAKTVRNDNSSRFGKFIRIHFGATGKLASADIETYLLEKSRVIFQLKAERDYHIFYQILSNKKPELLDMLLITNNPYDYAFISQGETTVASIDDAEELMATDNAFDVLGFTSEEKNSMYKLTGAIMHFGNMKFKLKQREEQAEPDGTEEADKSAYLMGLNSADLLKGLCHPRVKVGNEYVTKGQNVQQVIYATGALAKAVYERMFNWMVTRINATLETKQPRQYFIGVLDIAGFEIFDFNSFEQLCINFTNEKLQQFFNHHMFVLEQEEYKKEGIEWTFIDFGMDLQACIDLIEKPMGIMSILEEECMFPKATDMTFKAKLFDNHLGKSANFQKPRNIKGKPEAHFSLIHYAGIVDYNIIGWLQKNKDPLNETVVGLYQKSSLKLLSTLFANYAGADAPIEKGKGKAKKGSSFQTVSALHRENLNKLMTNLRSTHPHFVRCIIPNETKSPGVMDNPLVMHQLRCNGVLEGIRICRKGFPNRILYGDFRQRYRILNPAAIPEGQFIDSRKGAEKLLSSLDIDHNQYKFGHTKVFFKAGLLGLLEEMRDERLSRIITRIQAQSRGVLARMEYKKLLERR
chain 2: not shown
B2: human β-cardiac myosin sS1-eGFP (MYH7 1-808) S532P with essential light chain (complex)
chain 1: B1 chain 1 with S532P
chain 2: not shown
B3: human β-cardiac myosin sS1-eGFP (MYH7 1-808) R237W with essential light chain (complex)
chain 1: B1 chain 1 with R237W
chain 2: not shown
B4: human β-cardiac myosin sS1-eGFP (MYH7 1-808) A223T with essential light chain (complex)
chain 1: B1 chain 1 with A223T
chain 2: not shown
B5: human β-cardiac myosin sS1-eGFP (MYH7 1-808) D239N with essential light chain (complex)
chain 1: B1 chain 1 with D239N
chain 2: not shown
B6: human β-cardiac myosin sS1-eGFP (MYH7 1-808) H251N with essential light chain (complex)
chain 1: B1 chain 1 with H251N
chain 2: not shown

Target: TMR-phalloidin-labelled biotinylated actin filaments (UniProt P68135 1-377, biotin (~1 biotin per monomer))
Test: optical trap, harmonic force spectroscopy

| k0, detachment rate from actin at zero load | Binder |
| --- | --- |
| 102 s⁻¹ | B1 |
| 80 s⁻¹ | B2 |
| 155 s⁻¹ | B3 |
| 104 s⁻¹ | B4 |
| 140 s⁻¹ | B5 |
| 152 s⁻¹ | B6 |
